Consider one substance from article PMC11324310.

This assay concerns the target C-t FLAG-tagged WT-RELN (mouse) (UniProt Q60841). The assay can be described thus: immunoblot in non-reducing conditions (SDS-PAGE); culture media of HEK293T cells coexpressing FLAG-WT-RELN and monoallelic variants; non-reducing conditions.

With C-t FLAG-tagged WT-RELN, Q60841 27-3461, the stoichiometry N (usually the number of molecules, sites or subunits per partner or assembly) was found to be 2.
